{"source": "IntAct's records for PubMed 18555782", "parents": {"B1": {"name": "Heat shock protein homolog SSE1 (Saccharomyces cerevisiae), P32589 (parent)", "chain": "MSTPFGLDLGNNNSVLAVARNRGIDIVVNEVSNRSTPSVVGFGPKNRYLGETGKNKQTSNIKNTVANLKRIIGLDYHHPDFEQESKHFTSKLVELDDKKTGAEVRFAGEKHVFSATQLAAMFIDKVKDTVKQDTKANITDVCIAVPPWYTEEQRYNIADAARIAGLNPVRIVNDVTAAGVSYGIFKTDLPEGEEKPRIVAFVDIGHSSYTCSIMAFKKGQLKVLGTACDKHFGGRDFDLAITEHFADEFKTKYKIDIRENPKAYNRILTAAEKLKKVLSANTNAPFSVESVMNDVDVSSQLSREELEELVKPLLERVTEPVTKALAQAKLSAEEVDFVEIIGGTTRIPTLKQSISEAFGKPLSTTLNQDEAIAKGAAFICAIHSPTLRVRPFKFEDIHPYSVSYSWDKQVEDEDHMEVFPAGSSFPSTKLITLNRTGDFSMAASYTDITQLPPNTPEQIANWEITGVQLPEGQDSVPVKLKLRCDPSGLHTIEEAYTIEDIEVEEPIPLPEDAPEDAEQEFKKVTKTVKKDDLTIVAHTFGLDAKKLNELIEKENEMLAQDKLVAETEDRKNTLEEYIYTLRGKLEEEYAPFASDAEKTKLQGMLNKAEEWLYDEGFDSIKAKYIAKYEELASLGNIIRGRYLAKEEEKKQAIRSKQEASQMAAMAEKLAAQRKAEAEKKEEKKDTEGDVDMD"}}, "data": [{"variants_of": "B1", "conditions": "with hsp71_yeast SSA1, P10591", "values": [{"variant": "A280T;N281A", "effect of a mutation on the interaction": "decreasing interaction"}, {"variant": "T365V;N367S", "effect of a mutation on the interaction": "decreasing interaction"}, {"variant": "F392A;F394A", "effect of a mutation on the interaction": "decreasing interaction"}, {"variant": "D396A", "effect of a mutation on the interaction": "decreasing interaction"}, {"variant": "L489A;H490A", "effect of a mutation on the interaction": "decreasing interaction"}, {"variant": "E554A;M557S;L558S", "effect of a mutation on the interaction": "decreasing interaction"}, {"variant": "N572Y;E575A", "effect of a mutation on the interaction": "decreasing interaction"}]}]}
